Data: US20220267469A1

Experiments:
[1] = biological target: Biotinylated human BSSL (human) (UniProt P19835); test: flow cytometry displacement assay; 1.5 ug antibody, 1 ug b-hBSSL
[2] = biological target: Biotinylated human BSSL (human) (UniProt P19835); test: flow cytometry displacement assay; 3.0 ug antibody, 1 ug b-hBSSL
[3] = biological target: Biotinylated human BSSL (human) (UniProt P19835); test: ELISA, b-hBSSL coated through streptavidin at 1 µg/ml, detection HRP anti-FLAG M2, A450
[4] = biological target: Biotinylated human BSSL (human) (UniProt P19835); test: SPR single cycle kinetics, scFv captured by anti-FLAG M2

Sequence of Biotinylated human BSSL (human) (P19835 other isoform, or with tags, fused parts or gaps): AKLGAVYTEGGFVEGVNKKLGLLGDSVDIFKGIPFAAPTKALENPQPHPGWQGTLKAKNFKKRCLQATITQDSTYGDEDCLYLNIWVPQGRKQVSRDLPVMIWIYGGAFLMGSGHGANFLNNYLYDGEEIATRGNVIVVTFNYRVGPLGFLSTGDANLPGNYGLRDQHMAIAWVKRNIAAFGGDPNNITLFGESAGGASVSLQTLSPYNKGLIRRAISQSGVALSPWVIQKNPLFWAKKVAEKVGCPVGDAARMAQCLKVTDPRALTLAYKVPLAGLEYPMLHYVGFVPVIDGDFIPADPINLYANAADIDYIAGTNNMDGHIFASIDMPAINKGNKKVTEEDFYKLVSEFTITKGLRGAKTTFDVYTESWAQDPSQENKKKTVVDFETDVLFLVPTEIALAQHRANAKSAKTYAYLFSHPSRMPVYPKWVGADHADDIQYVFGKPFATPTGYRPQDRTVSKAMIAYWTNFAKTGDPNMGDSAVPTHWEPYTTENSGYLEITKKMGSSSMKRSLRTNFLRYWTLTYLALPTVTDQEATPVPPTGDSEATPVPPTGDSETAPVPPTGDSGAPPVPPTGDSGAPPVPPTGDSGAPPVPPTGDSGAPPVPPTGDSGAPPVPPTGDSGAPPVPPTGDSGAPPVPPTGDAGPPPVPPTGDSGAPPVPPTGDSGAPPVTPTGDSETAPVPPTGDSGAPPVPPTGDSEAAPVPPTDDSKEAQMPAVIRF

| percentage reduction of b-hBSSL binding to CD14+ monocytes [1] | percentage reduction of b-hBSSL binding to CD14+ monocytes [2] | EC50 (read off the curve) [3] | Kd [4] | koff [4] | kon [4] | Binder |
| --- | --- | --- | --- | --- | --- | --- |
| 3% | 0% | – | – | – | – | S-SL048-75 hIgG4 S228P (antibody, V domains shown) VH: QVQLVQSGAEVKKPGASVKVSCKASGYTFTSYNMHWVRQAPGQGLEWMGVIYPGGGYTSYAQKFKGRVTMTRDTSTSTVYMELSSLRSEDTAVYYCARDYYGSSPLGYWGQGTLVTVSS VL: DIQMTQSPSSLSASVGDRVTITCRASQSISYLNWYQQKPGKAPKLLIYATSNLQSGVPSRFSGSGSGTDFTLTISSLQPEDFATYYCHQRSSSPTFGQGTKLEIK |
| – | – | 0.02 µg/mL | 0.8 nM | 4.4e-05 s⁻¹ | 55000 M⁻¹ s⁻¹ | AS20 scFv (scFv, V domains shown, not shown: small tags and cut ends, Gly-Ser linker; C-terminal 3xFLAG and His6 tags) VH: QVQLQQPGAELVKPGASVKMSCKASGYTFTSYNMHWVKQTPGQGLEWIGVIYPGNGDTSYNQKFKGKATLTADKSSSTAYMQLSSLTSEDSAVYYCARDYYGSSPLGYWGQGTTLTVSS VL: QIVLTQSPAVMSASPGEKVTMTCSASSSISYMHWYQQKPGTSPKRWIYDTSKLASGVPARFSGSGSGTSYSLTISSMEAEDAATYYCHQRSSYPTFGGGTKLEIK |
